According to US8313778B2, “Drug-delivery systems” (Evonik Roehm GmbH, priority 2005, dated 2012):
carboxyfluorescein = carboxyfluorescein label (N-terminal); fluorescein = fluorescein label

Experiments:
[1] = system: HeLa cells; format: cell-based, human; details: flow cytometry (FIG. 5)
Procedure: Cells and reagents: The human HeLa carcinoma cells used are derived from the American Type Culture Collection (Manassas, Va., USA). HeLa cells were cultured in RPMI 1640 medium with stabilized glutamine and 2.0 g/l NaHCO3 (PAN Biotech, Aidenbach, Germany) and with 10% foetal calf serum (PAN Biotech). Chlorbromazine was purchased from (Calbiochem (Bad Soden, Germany), 5-(N-ethyl-N-isopropyl)amiloride (EIPA), methyl-β-cyclodextrin (MβCD) and MTT [3-(4,5-dimethylthiazol-2-yl)-2,5-diphenyltetrazolium bromide] was purchased from Sigma (Deisenhofen, Germany).
Peptides: The peptides used were synthesized by EMC microcollections (Tübingen, Germany). The purity of all the peptides was checked by analytical HPLC. […]
Stock solution of the peptides: The peptides were taken up in DMSO to result in a 10 mM solution. […] This took place by UV/VIS spectrometry with a 1:100 dilution of the stock solution with 0.1M Tris/HCl buffer (pH 8.8), the absorption at 492 nm was measured, and carboxyfluorescein was assumed to have an extinction coefficient of 75 000 l/(mol·cm). […]
The peptides derived from human or bovine lactoferrin were prepared by solid-phase peptide synthesis. […] In order to determine whether the derived lactoferrin peptides have an activity as cell-penetrating peptides, the cell-associated fluorescence of the HeLa cells incubated with bLF peptides or hLF peptides was determined by flow cytometry. […]

[2] = system: HeLa cells; experiment: Cytotoxicity of hLF peptide, MTT test; format: cell-based, human; details: for ability of the cells to survive (MTT test): HeLa cells
Procedure: However, relatively short incubation times of less than one hour were used when observing peptide uptake in live cells. In addition, therefore, the effect of longer incubation times and higher concentrations of the peptides on the ability of the cells to survive was tested. HeLa cells were for this purpose incubated with hLF peptide at a concentration of 1.25 μM to 160 μm for 0.5 or 6 h. The vitality of the cells was then determined with an MTT test.

Row | Substance | uptake relative to the amount taken up of hLF peptide [1] | cytotoxic effects (MTT test) ([2]; HeLa cells incubated for only 30 min, up to a concentration of 40 μM (FIG. 6)) | ability of the cells to survive (MTT test) ([2]; concentrations above 40 μM (FIG. 6)) | ability of the cells to survive (MTT test) ([2]; peptide concentration of 5 μM, after 6 h (FIG. 6))
1 | Fluo-FQWQRNMRKVR-CONH2 (fluorescein-FQWQRNMRKVR-NH2; listed as Homo sapiens) [LF2] | one-tenth | – | – | –
2 | Fluo-FQWQRNMRKVRGPPVS-CONH2 (fluorescein-FQWQRNMRKVRGPPVS-NH2; listed as Homo sapiens) [LF1] | one-tenth | – | – | –
3 | Fluo-KCFQWQRNMRKVRGPPVSCIKR-CONH2 (carboxyfluorescein-KCFQWQRNMRKVRGPPVSCIKR-NH2; cysteine pairing not given here; listed as Homo sapiens) [hLF peptide] | – | No cytotoxic effects | killed | slightly reduced
